Laboratory results from article PMC5025603.

Substrate: CC(O)C(=O)O
Assay: cells, lysate or membranes
Settings: labelled compound, KH2PO4 pH 5.0, room temperature, 10 s uptake, strain printed GLS in table, GS in text and methods, host background uptake not subtracted

B1: PAS (putative lactate transporter of P. pastoris) (Komagataella phaffii GS115) (protein)
chain: MSHSIHSAAHKSVMTDIEKQHDRIHPHDHPVTPLEKPDLSAKSIKHYFATRLSTLVPKAEDFKDKRYIFNPFMVLRELTPKNWNFFMCGFAAWTWDAVDFFSVSLNVTNIAKDLNVTTKDVTWGLTLVLMLRSVGAISFGLWADRKGRKWPFIFNMILLIVLQIGLGFVNTYKQFLGVRAVFGIAMGAVFGNASSLALDDCPPRAKGIVSGIFQQGYAFGYLLVVVFQRAITDNASKSWRALFWFSAGPPVLIILWRLVLPETDAFIAQQNLRMETSDGQTASQQFVKQGKDALRVYWLMLIYMIIMMAAFNFSSHSSQDLYPTLLTVQYEFGKDRSTVTNVVANLGAIVGGIFWGHMSNFIGRRLAVLLCCIVGGAFIYPWAFINGSGINAGAFFLQFAVQGGWGVCPVHLAEMSPPHFRAFVTGTTYQLGNLASSGSSTILADIGERFPIYDENGVRKEGVYDYAKVMAIFMGAVFAFLFIVMLLGPERRGASNLDDLQDYIDDWEQKDLDNKKGIETEFIEDVQLMEAVSNEDLSEKGNEKVEAFEGNK
- Km: 157.40 ± 25.46 µM
- Vmax: 452 µmol/min/mg
